Biological target: clathrin (Mr ~180,000 polypeptide) (bovine (calf brain), UniProt P49951 1-1675)
Assay: co-sedimentation

Sequence of clathrin (Mr ~180,000 polypeptide) (P49951 whole entry): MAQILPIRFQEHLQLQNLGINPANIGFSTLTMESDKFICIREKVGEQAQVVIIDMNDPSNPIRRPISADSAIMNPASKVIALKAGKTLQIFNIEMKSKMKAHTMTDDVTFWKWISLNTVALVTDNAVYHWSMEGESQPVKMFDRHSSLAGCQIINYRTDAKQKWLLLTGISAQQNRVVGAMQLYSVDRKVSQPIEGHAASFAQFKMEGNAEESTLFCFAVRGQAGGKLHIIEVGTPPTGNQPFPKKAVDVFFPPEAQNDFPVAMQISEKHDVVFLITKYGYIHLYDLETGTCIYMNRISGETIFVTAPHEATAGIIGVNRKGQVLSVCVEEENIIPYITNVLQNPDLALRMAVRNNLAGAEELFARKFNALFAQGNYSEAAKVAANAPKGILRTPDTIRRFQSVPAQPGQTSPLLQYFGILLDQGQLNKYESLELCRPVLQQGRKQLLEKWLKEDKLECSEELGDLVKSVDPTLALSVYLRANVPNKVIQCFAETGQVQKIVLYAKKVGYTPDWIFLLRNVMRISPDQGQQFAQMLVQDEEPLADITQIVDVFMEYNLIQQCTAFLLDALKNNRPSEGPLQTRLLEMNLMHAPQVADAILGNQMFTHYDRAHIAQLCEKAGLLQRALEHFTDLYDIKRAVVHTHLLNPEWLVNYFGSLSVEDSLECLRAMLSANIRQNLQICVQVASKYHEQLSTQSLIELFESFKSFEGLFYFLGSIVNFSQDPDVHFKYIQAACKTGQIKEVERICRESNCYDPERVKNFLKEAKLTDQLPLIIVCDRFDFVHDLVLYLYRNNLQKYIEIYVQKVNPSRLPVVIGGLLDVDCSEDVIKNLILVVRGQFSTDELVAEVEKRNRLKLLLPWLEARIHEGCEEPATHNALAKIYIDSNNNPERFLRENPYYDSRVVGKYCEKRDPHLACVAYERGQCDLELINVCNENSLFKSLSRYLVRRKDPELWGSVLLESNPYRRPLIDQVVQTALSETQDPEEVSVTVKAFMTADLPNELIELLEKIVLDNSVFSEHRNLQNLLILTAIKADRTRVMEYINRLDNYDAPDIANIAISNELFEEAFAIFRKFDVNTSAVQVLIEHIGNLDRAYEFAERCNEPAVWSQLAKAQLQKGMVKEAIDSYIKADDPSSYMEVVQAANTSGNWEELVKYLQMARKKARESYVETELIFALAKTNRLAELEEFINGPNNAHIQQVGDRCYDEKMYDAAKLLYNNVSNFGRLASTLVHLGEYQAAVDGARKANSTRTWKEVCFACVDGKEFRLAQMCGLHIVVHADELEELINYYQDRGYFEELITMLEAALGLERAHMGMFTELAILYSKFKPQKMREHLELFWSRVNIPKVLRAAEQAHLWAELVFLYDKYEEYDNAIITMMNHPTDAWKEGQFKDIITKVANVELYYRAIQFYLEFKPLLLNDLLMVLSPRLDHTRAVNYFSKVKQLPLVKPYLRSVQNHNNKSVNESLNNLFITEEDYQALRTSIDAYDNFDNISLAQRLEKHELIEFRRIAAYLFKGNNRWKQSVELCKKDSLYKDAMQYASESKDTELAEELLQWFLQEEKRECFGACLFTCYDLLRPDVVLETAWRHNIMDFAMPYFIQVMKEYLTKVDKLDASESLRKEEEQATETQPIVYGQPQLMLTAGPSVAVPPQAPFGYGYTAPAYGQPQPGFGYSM

Binder	stoichiometry N
clathrin light chain, Mr 36,000 (natural protein, bovine (calf brain), UniProt P04973 1-243, looked up) MAELDPFGVPAGGPALGNGVAGEEDPAAAFLAQQESEIAGIENDEAFAILDGGAPGSQPHGEPPGIPDAVDGVTNGDYYQESNGPTDSYAAISQVDRLQSEPESIRKWREEQTERLEALDANSRKQEAEWKEKAIKELDEWYARQDEQLQKTKANNRVADEAFYKQPFADVIGYVTNINHPCYSLEQAAEEAFVNDIEESSPGTEWERVARLCDFNPKSSKQAKDVSRMRSVLISLKQAPLVH	0.83 mol per 3.00 mol of 180,000 clathrin (one triskelion)
clathrin light chain, Mr 33,000 (natural protein, bovine (calf brain), UniProt P04975 1-228, looked up) MADDFGFFSSSESGAPEAAEEDPAAAFLAQQESEIAGIENDEGFGAPAGSQGGLAQPGPASGASEDMGATVNGDVFQEANGPADGYAAIAQADRLTQEPESIRKWREEQRKRLQELDAASKVMEQEWREKAKKDLEEWNQRQSEQVEKNKINNRIADKAFYQQPDADIIGYVASEEAFVKESKEETPGTEWEKVAQLCDFNPKSSKQCKDVSRLRSVLMSLKQTPLSR	1.62 mol per 3.00 mol of 180,000 clathrin (one triskelion)

From paper PMC2112702 (The Journal of Cell Biology, 1983)
